# Test results reported in the DeepSol protein solubility set.
# Assay: soluble on expression in E. coli; label from the status in PepcDB or PDB records
row,Sequence,soluble on expression in E. coli
1,MSLEVRWNEYLSRNGSLFSSDELSGASPPSVFVGSYGYPRVGVGPMVPPVHGDTSLMDAPERWAGRPLDEIVNYRLSLVRGIRKTRVTGTSGRYIEGLQEAAMSRRPVDSDIRFEKPVSPAALADGCCAPFGPVGEIRRASFGGSSADGAIERAYYDRDLGAADAAVALYDGGTEISRIQGCLSVGMLGRRRKLVPTRWSITAVDDMVSKRLVGRIKDAPVSDAHQVFHYVHMGNLFSVVLFPHRWLFEMMEAYYSGGVLGFGADHEDARGLDHAPATAGAHFASRLAVAEHLCGRGVQAGALVLREIRAEYSVPVGVWQVREGLRAAMAQKPFVAGSLDEAIDEACRPMSISRNEWLSHGSIMRLVRQRTLSEFFEGHHHHHH,not soluble
2,GPVGYGAATTGGGNKVPVNVATFEAMQSAIDSYSGSGGLVLNYTGKFDFGTIKDVCAQWKLPAKTVQIKNKSDVTIKGANGSAANFGIRVVGNAHNVIIQNMTIGLLQGGEDADSISLEGNSSGEPSKIWVDHNTVFASLTKCSGAGDASFDGGIDMKKGVHHVTVSYNYVYNYQKVALNGYSDSDTKNSAARTTYHHNRFENVESRVPLQRFGLSHIYNNYFNNVTTSGINVRMGGIAKIESNYFENIKNPVTSRDSSEIGYWDLINNYVGSGITWGTPDGSKPYANATNWISTKVFPESLGYIYTVTPAAQVKAKVIATAGAGKNLAE,soluble
3,LLGDEAIALGAIHAGISGVYAYPGTPSTEITEFIQNNRLAKERKLHSTWCTNEKTAMEAALGMSYAGKRALVCMKHVGMNVAADAFVNSAITGVNGGLVVLAADDPSMHSSQNEQDSRFYGKFAMIPMLEPSSQQEAYDMMDYAYTLSEKLKLPVLMRVVTRLAHSRAGVEVADIREENQLNPDHERAHWVLLPGNARKQYLDLVKKQEKLEEASSKSPYNYLEGLNPEYDYEFGVIACGIGYNYVKEADTDSCHIPVLKVSQYPLPAEEIRTMADRCGYVLVVEDGQPFVEEQVKAILSSDYEVKGRLTETLPRTGELTPDNVGEAIGWGIKRPFGKSQVVMPRPPALCQGCGHRDVYDALNKVAAEYPDARIFGDIGCYTLGALPPFRAIDSCVDMGASITMAKGASDAGVFPAIAVIGDSTFTHSGMTGLLDAVNDRANITVVISDNLTTAMTGGQDSAGTNKFEAICLGLGVEPEHVRVVVPLPKNMEEITRTIREEIEY,not soluble
4,GSGPTYCWNEANNPGGPNRCSNNKQCDGARTCSSSGFCQGTSRKPDPGPKGPTYCWDEAKNPGGPNRCSNSKQCDGARTCSSSGFCQGTAGHAAA,soluble
5,MPMPNLPKELVEEILSFVPATYLKRLSATCKPWNRLIHNDKRFARKHYDNAAKEFLVFMMRKNFRIIRRGVNLHGADPSAEVKGELTLPDPYFKNSADEFHIDRVFHCDGLLLCTSKLERRMVVWNPLTGETKWIQTHEEGDNFFLGYSQEDKNISCKKSYKIMGFYRSGSKVWEYDFNSDSWRVLNGILPNWYFDKSYKCVSLKGNTYMLAGAVTDMGFDLSLQSYDFSTEKFAPVSLPVPSQARSLNGANRLSVVRGEKLALLYRRDKRSKAEIWVTNKIDDTTEGAVSWTKVLELDLSRELHALFTSNFLVDEEKKVFICCVSWKEDEDENKSNKVYIVGEDNIVKEIDSGEDATSGCEPTILSLYVPSLVYM,soluble
6,MDVSDSIDWSKMTLQKISVRIEGHATSVSLEQPFLDILKTIARKKGQSLAFIITDIDSKRPQQVNLSSSLRIYALQSVLIQRL,not soluble
7,MGDEVGRGHFGYTCAAKIKKGARKGDAVAVKVIPKAKMTTSIAIEDVRREVKILKALAGHKNLVQFYDAYEDNDNVYIVMELCEGGELLDRILSRGGKYSEDDAKAVLVQILNVVSFCHIQGVVHRDLKPENFLFTSKDENSQLKAIDFGLSDFVKPDERLNDIVGSAYYVAPEVLHRCYSTEADVWSIGVIAYILLCGSRPFWARTESGIFRSVLKADPSYNEAPWPSLTLEAMDFVKRLLCKDPRRRMTAAQALSHPWIRNYNDIKLPLDILIFRLIKAYIRSSSLRKAALRALSKTLTVDELFYLKGQFSLLEPDRNGCITLDNIRMALTREATYAMKESRVQEILVSLSALQYRRMDFQEFCAAAVSVHQLEALDRWEQHARSAYDFFEKDGNRAIVIDELASELGLSPSVPLHVVLQDWIRHTDGKLSFLGFVKLLHGMSSRSLSKMR,not soluble
8,EMLYRSVDNRDIPQAMPKTIQALAHWDYQGLPDSEVVEAFSVELLALYETKALPKIANRMNIEVSGMRSLMMKTGRKLSRLEVLPTSIKELSRLDKRWADAKHWVAFKNLSGAITVNHYLAALDMQVNEMGEIEAQPEKRQIYVDLFFKT,not soluble
9,MSLKQEKLALVESALEDFYGDQQFASSLRESVLYSIHAGGKRIRPFLLLEVLEALQVTIKPAHAQVATALEMIHTGSLIHDDLPAMDDDDYRRGRLTNHKKFGEAMAILAGDALFLDSYALIAQADLPSQIKVDLIANLSLASGSLGMVAGQVLDMEGEHQHLSLEELQTIHANKTGKLLAYPFQAAAIIAELSPEMQVKLKTVGELIGLAFQVRDDVLDVTASFEEIGKTPQKDLQAEKSTYPALLGLEESIAFCNQTLDQANEKLEEIAQQLPFETESIVSVVESLRINGEGHHHHHH,soluble
10,MALLDFFLSRKKNTANIAKERLQIIVAERRRSDAEPHYLPQLRKDILEVICKYVQIDPEMVTVQLEQKDGDISILELNVTLPEAEELK,not soluble
11,MGSDKIHHHHHHMSKKTYYYHSESEDLVSSAQQDFQLPDDYQFFREGVAWQFWNGLVRSLACAFAWLYSRLFLLVKVKGKEKLRPFKKQGYFVYGNHTQMLGDPFNPMTIVNPYHYYALAAQANWGIPFLGKYVIPAAGLPVGKNIKQSIRLLKDVKYAYEEKQAAIVIYPEAHLWPYYTKIRPFPATSFNFPVSLKAPAFAMTTTYQPCRWRKRPKITVYIDGPFYPDEKLGKKAAQEKLHGEIAKSMQERAKLSTCEYCSYVKIDSKN,not soluble
12,MDSNSTTSFLSNGYNHKETLKLIEDMKNSASNKGILLYVNSPGGGVYESDELYLKLKEYKEETGRPVWTYMSNQACSGGYYISMASDKVFSNRNAWTGSIGVIISLTNLKGLYDNLGIKGIYITSGRNKAMGAADLELTDEQRDILQSLVDEAYEQFVEIVAEGRKMTVEEVKRIADGRILSAKQALELNLIDEIATYDEVKEAFQRRAWKC,not soluble
13,MKNVVIHQIVTLIFTEDQLRAYWQKQESTVPFAALTDAQYMKLAEDMLAHSSHSQLEQHLLGGRWRTKEEAEGAVLAEDESRDDIHVEIIDTNAPAEPRRRMLIDRVREILCPHCSFTFYVREAASERRDWTCPACGSGFCDLTP,not soluble
14,MSKKTPLNEIAEFDVSDYLRDDEDIAEYLTQVLAEGDSNELLRAIGYIAKARGITQLAKDTGLGRESLYKAFRAGSKPQFETVFKVLHALNINLKAIPKEVVSTRV,not soluble
15,MGSDKIHHHHHHMLAIIKQFFAKSHGTTVSDSRFLALNHWLSNTFGEPLSPVLISGDASFRRYFRAVHQGRAMVIMDTPVALIPTEPFVAVRNAYAASGLPVPGIIAKDDEQGFMALEDFGDVQLLSLLNSQSVRHWYPRALALLPGIAAVTQTVLGPLPDYDDAFVRRELGIFTEWLLGTHLKLELTSDEEAIIADAFDMLTQNALEQPKVGMHRDFHSRNLMVVDGELKLLDFQDAVLGPVTYDAVSLLRDCYIRWSEDLVDDMLVEFFVLAHEHALVPPHTDMVQFRRWFELMGLQRHIKAAGIFARLNHRDGKAGYLKDIPLTMHYIRDVAVRYKELGDFAQFIMRRVMPALEAGA,not soluble
16,MGSDKIHHHHHHMREENYEEAAKAFNAAIEANPSDPIGFVNFGNLLGMVGELDKALIFFDKAIGLQEDCAPAYYGAGTIYYKQEKFEDGAKMFKQAIAHKLNETDVYFMLGMCYYQLGALPHAQANFQRALELDSNDVEARFQLGLCLAQLEQVDEAIKHLQLVVEHVPNHADAHFNLGVAYAYKDRLEEALAHFERAIHIQPEHILAHNGKKTVEEVLNKGANEA,not soluble
17,MAADPASAPVLLHPRRAMVLAAGLGLRMRPLTETMPKPLVAIHDKPLIDWALDHLATAGVEEAVVNLHHLPEMLEAHLQGRATPRIHFSDETGQRLETGGGVRKALPHLGDDPFYVLNSDVLWLNGTIPALDRLAAAWDPETMDALLLLHPLAAAHGYEGLGDFDLDPLGRPTRRAEMHMAPFIFTGVQILHPRLFDDAPEGPFSLNVLYDRALSEDRLAAIVHDGEWYHVGTPQALVHTETILGQHSSMSDQLEHHHHHH,not soluble
18,MSPAQIIRTSHSFPPSFTGTSSSAENSHAQSPQQVLTRAFVASGELNAAFGRTSTASAQDFTSLLGTLQRELEKKTPAFPDLAELANQLADAAMGDQGGHWLGRDEQQTLKGMIDRCKSQLAHTPASDASYDLLAQVCENLKKARLHQSISQMTGEAHAKVRGVPDLLALIQLDPDILAEKPVGMPSYVKFSSFICMAKARTAELSENLRNASNEVALLLHPHADTILEQGSLRLQIVGF,not soluble
19,MLRPPMTKLVISNRESHRECEQVLQIGECAIVRSSSGEPWQLLNNGNSDSIDYALLQDILYEGYRLSTIYNIKSHTKSMKRLRRKLASIFSNSNFLLPLSKDGSSSSSQPHFYLSPSNSSLFDARKSSRSRGAVIKSPSTINIEKNRHSSNSGENQKMRLNLSMSTGNLCRAGVVRTPYPTSKQLHFDNDDGDEEDDTDDEGEADLVSIKTRSGRRNVLKSPPPPERIPSSMGASDAEEIDIKSHMKPLSVKIPANIFKTPTLDIPVDDDAEIDADVFPLPPPTPVNLKHGLFSIPSGRNSESARSRQTKRSPFGSVTSRTSSLDRRMSLSCLEDTSNYQKTQYLVFPLRTSSKKPYLLKFPEDMQEEDEKHNGSVWGSDTSLEEEIKV,not soluble
20,MSGESVIEFTGFIKACRLFRENRLAEAEAVCTNLLRKNPLDQATWALKMQCLSDSTYVDELENEDMGLAETFLDQNVIAPNARPGTSFARPKTSAKGVNPILRPTTNAGRPLSGVVRPQSSFKSGSMDQAVRTARTAKTARAVSSTSARNMRLGTASMAAGADGEFVNLARLNIDKYAADPQVNRQLFEYVFYYLNDIRVAHQIAGTASKAAGFEDYYWKNQLAKCYLRLGMLQDATKQLQSSLEQKKLIETFALLSKAYNRVDQPMAALKTYSAGLEVFPENVTMLTGMARVQEALGEYDESVKLYKRVLDAESNNIEAIACVATTYYYGGKPELAMRYYRRILQMGVSSPELFLNIGLCCMAAQQFDFALSSILRAQSTMTDDVAADVWYNIGQILVDIGDLVSAARSFRIALSHDPDHSESLVNLGILKHREGKIDEARSLYSSATSKNPYMFEGNYNLGLVSFTQGKYHECRELIEKALAAFPEHEHCKKILNHLKPLYESI,not soluble
21,MSDAMPLDQTLEQLTQDEWIDIPQGWSQGRTIYGGLVAGLLMHKALSVMNDESKNLLSTSITFVGPVNEGRVRLTVEILRQGKSVTTIEARLWQDQAVQTILIASFGQPRSLEHHHHHH,not soluble
22,MNKFGAEKIFIEKQSGATITHRPIFQEALDFVRAQDIFIVEAIDRLGRNYDEIIDSVNYLKKKNVRLIITSLPIMAEAIGNPLLDKFIKDLIIQILAMIAEQERTESKRRQAQGIKIAKANGVYKGRPKLYSADTKDPQRRLVYKSIVQDLKNGVAISKIAKDYNITRQTIYRIKKEIHELEIN,not soluble
23,MSLKYGHVAWIQQILDGSYADAMNTLKNITVDDSKKGESLSECELHLNVAKLSSLLVEKDNLDINTLRKIQYNLDTIDAEKNISNKLKKGEVQICKRFKNGSIREVFNILVEELKSTTVVNLSDLVELYSMLDDEESLFIPLRLLSVDGNLLNFEVKKFLNALVWRRIVLLNASNEGDKLLQHIVKRVFDEELPKNNDFPLPSVDLLCDKSLLTPEYISETYGRFPIDQNAIREEIYEEISQVETLNSEGHHHHHH,not soluble
